Where “and” joins values, the source holds several entries; their conditions need not be identical. Equal values may be shown once. One block for each substance: values may come before it.
Key:
[1] = biological target: Ce^2–184-Sp^140–152 chimera•Gemin2 (Caenorhabditis elegans | Schizosaccharomyces pombe | not stated) (UniProt Q09808); assay: SEC-MALS; Superdex 200 10/300 GL, 0.5 ml/min, room temperature (20°C), 50 mM HEPES-NaOH pH 7.5, 250 mM NaCl, 5 mM DTT; self-association of the SMN•G2 unit, (SMN•G2)n
[2] = biological target: SMN (SMN•Gemin2 dimer) (Schizosaccharomyces pombe) (UniProt Q09808); conditions: cited from earlier work
[3] = biological target: Sp^1–117-Hs^253–294 chimera•Gemin2 (Schizosaccharomyces pombe | human | not stated) (UniProt Q09808); assay: SEC-MALS; Superdex 200 10/300 GL, 0.5 ml/min, room temperature (20°C), 50 mM HEPES-NaOH pH 7.5, 250 mM NaCl, 5 mM DTT; self-association of the SMN•G2 unit, (SMN•G2)n
hsSMNΔ5(G275S)•Gemin2 = hsSMNΔ5(G275S)•Gemin2 (UniProt O14893); assay: SEC-MALS; conditions: 20°C; peak concentration 0.5 µM; parent: 231 (188-454)
hsSMNΔ5(G279C)•Gemin2 = assay: SEC-MALS; conditions: 20°C; peak concentration 0.5 µM; parent: 231 (188-454)
[4] = biological target: hsSMNΔ5(L260S)•Gemin2, Q16637;O14893; assay: SEC-MALS; conditions: 20°C; peak concentration 0.3 µM; parent: 231 (188-454)
[5] = biological target: hsSMNΔ5(M263R)•Gemin2, Q16637;O14893; assay: SEC-MALS; conditions: 20°C; peak concentration 0.8 µM; parent: 231 (188-454)
[6] = biological target: hsSMNΔ5(M263T)•Gemin2, Q16637;O14893; assay: SEC-MALS; conditions: 20°C; peak concentration 0.5 µM; parent: 231 (188-454)
hsSMNΔ5(S262G)•Gemin2 = assay: SEC-MALS; conditions: 20°C; peak concentration 0.3 µM; parent: 231 (188-454)
hsSMNΔ5(S262I)•Gemin2 = assay: SEC-MALS; conditions: 20°C; peak concentration 0.5 µM; parent: 231 (188-454)
hsSMNΔ5(S266P)•Gemin2 = assay: SEC-MALS; conditions: 20°C; peak concentration 0.2 µM; parent: 231 (188-454)
[7] = biological target: hsSMNΔ5(Y272C)•Gemin2, Q16637;O14893; assay: SEC-MALS; conditions: 20°C; peak concentration 0.8 µM; parent: 231 (188-454)
[8] = biological target: spSMN-GCN4(IL) chimera•Gemin2 (Schizosaccharomyces pombe | S. cerevisiae) (UniProt P0CU08); assay: SEC-MALS + AUC + other: SAXS; spSMN-GCN4 fusions in complex with Gemin2; SEC-MALS, SV-AUC and SAXS named together

hsSMNΔ5•Gemin2 complex (from UniProt O14893) M263T, sequence (Q16637 whole entry M263T, stated change not applied): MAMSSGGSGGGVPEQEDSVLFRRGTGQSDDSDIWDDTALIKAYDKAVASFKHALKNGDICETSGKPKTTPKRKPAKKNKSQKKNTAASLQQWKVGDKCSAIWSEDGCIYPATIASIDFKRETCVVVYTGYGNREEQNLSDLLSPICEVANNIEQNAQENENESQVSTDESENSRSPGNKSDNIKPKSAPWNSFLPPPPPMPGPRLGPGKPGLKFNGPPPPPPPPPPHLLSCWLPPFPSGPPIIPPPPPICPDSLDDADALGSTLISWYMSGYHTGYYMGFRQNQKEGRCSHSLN
hsSMNΔ5•Gemin2 complex (from UniProt O14893) M263T, sequence (O14893 12-280, stated change not applied): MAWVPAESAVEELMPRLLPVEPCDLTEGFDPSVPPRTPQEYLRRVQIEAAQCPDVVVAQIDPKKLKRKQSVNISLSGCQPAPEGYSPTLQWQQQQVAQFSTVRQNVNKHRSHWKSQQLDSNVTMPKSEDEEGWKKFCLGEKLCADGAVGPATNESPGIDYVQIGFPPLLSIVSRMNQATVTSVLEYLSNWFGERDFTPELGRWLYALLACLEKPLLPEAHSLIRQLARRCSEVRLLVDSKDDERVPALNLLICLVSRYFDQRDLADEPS
spSMN-GCN4(IL) chimera•Gemin2, sequence (P0CU08 whole entry, looked up, change not shown): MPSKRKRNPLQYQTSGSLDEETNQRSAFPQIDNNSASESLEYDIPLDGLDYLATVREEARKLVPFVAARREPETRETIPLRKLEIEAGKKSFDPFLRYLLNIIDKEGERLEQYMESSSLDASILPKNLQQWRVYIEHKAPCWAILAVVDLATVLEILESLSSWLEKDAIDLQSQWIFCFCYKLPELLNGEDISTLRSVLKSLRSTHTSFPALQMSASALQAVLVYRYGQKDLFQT
hsSMNΔ5•Gemin2 complex (from UniProt O14893) L260S, sequence (Q16637 whole entry L260S, stated change not applied): as the sequence (Q16637 whole entry M263T, stated change not applied) above, with L260S, T263M counted along it
hsSMNΔ5•Gemin2 complex (from UniProt O14893) L260S, sequence (O14893 12-280, stated change not applied): as the sequence (O14893 12-280, stated change not applied) above
hsSMNΔ5•Gemin2 complex (from UniProt O14893) Y272C, sequence (Q16637 whole entry Y272C, stated change not applied): as the sequence (Q16637 whole entry M263T, stated change not applied) above, with T263M, Y272C counted along it
hsSMNΔ5•Gemin2 complex (from UniProt O14893) Y272C, sequence (O14893 12-280, stated change not applied): as the sequence (O14893 12-280, stated change not applied) above
SMN (SMN•Gemin2 dimer), sequence (Q09808 whole entry): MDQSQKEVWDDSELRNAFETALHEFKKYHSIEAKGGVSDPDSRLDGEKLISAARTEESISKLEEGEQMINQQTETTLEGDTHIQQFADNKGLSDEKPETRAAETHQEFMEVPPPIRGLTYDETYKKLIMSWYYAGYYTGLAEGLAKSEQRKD
hsSMNΔ5•Gemin2 complex (from UniProt O14893) G275S, sequence (O14893 whole entry, looked up, stated change not applied, one chain of several): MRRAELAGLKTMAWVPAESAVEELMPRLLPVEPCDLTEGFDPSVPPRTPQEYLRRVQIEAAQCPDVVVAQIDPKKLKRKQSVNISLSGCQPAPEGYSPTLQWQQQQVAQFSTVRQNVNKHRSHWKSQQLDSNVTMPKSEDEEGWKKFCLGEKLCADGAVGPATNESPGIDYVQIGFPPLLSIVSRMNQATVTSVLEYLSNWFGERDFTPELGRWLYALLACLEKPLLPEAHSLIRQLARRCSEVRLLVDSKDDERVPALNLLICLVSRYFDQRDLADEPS
hsSMNΔ5•Gemin2 complex (from UniProt O14893) S266P, sequence (O14893 whole entry, looked up, stated change not applied, one chain of several): as above
hsSMNΔ5•Gemin2 complex (from UniProt O14893) S262G, sequence (O14893 whole entry, looked up, stated change not applied, one chain of several): as above
hsSMNΔ5(G275S)•Gemin2, sequence (O14893 whole entry, looked up, stated change not applied): as the sequence (O14893 whole entry, looked up, stated change not applied, one chain of several) above
hsSMNΔ5•Gemin2 complex (from UniProt O14893) G279C, sequence (O14893 whole entry, looked up, stated change not applied, one chain of several): as above
hsSMNΔ5•Gemin2 complex (from UniProt O14893) S262I, sequence (O14893 whole entry, looked up, stated change not applied, one chain of several): as above
hsSMNΔ5•Gemin2 complex (from UniProt O14893) M263R, sequence (Q16637 whole entry M263R, stated change not applied): as the sequence (Q16637 whole entry M263T, stated change not applied) above, with T263R counted along it
hsSMNΔ5•Gemin2 complex (from UniProt O14893) M263R, sequence (O14893 12-280, stated change not applied): as the sequence (O14893 12-280, stated change not applied) above

Substance: Ce^2–184-Sp^140–152 chimera•Gemin2 (from UniProt Q09808 140-152) (complex)
stoichiometry N [1]: 2

Substance: SMN (SMN•Gemin2 dimer) (from UniProt Q09808)
Kd [2]: 1 µM

Substance: Sp^1–117-Hs^253–294 chimera•Gemin2 (from UniProt Q09808 1-117; Q16637 253-294) (complex)
stoichiometry N [3]: 4 and 8

Substance: hsSMNΔ5•Gemin2 complex (from UniProt O14893) G279C
other: SEC-MALS Mw (hsSMNΔ5(G279C)•Gemin2): 586

Substance: hsSMNΔ5•Gemin2 complex (from UniProt O14893) L260S
other: SEC-MALS Mw [4]: 124

Substance: hsSMNΔ5•Gemin2 complex (from UniProt O14893) M263R
other: SEC-MALS Mw [5]: 113

Substance: hsSMNΔ5•Gemin2 complex (from UniProt O14893) Y272C
other: SEC-MALS Mw [7]: 78

Second part, the substance after the results:

other: SEC-MALS Mw (hsSMNΔ5(G275S)•Gemin2): 58
Substance: hsSMNΔ5•Gemin2 complex (from UniProt O14893) G275S

other: SEC-MALS Mw [6]: 115
Substance: hsSMNΔ5•Gemin2 complex (from UniProt O14893) M263T

other: SEC-MALS Mw (hsSMNΔ5(S262G)•Gemin2): 275
Substance: hsSMNΔ5•Gemin2 complex (from UniProt O14893) S262G

other: SEC-MALS Mw (hsSMNΔ5(S262I)•Gemin2): 306
Substance: hsSMNΔ5•Gemin2 complex (from UniProt O14893) S262I

other: SEC-MALS Mw (hsSMNΔ5(S266P)•Gemin2): 99
Substance: hsSMNΔ5•Gemin2 complex (from UniProt O14893) S266P

stoichiometry N [8]: 2
Substance: spSMN-GCN4(IL) chimera•Gemin2 (from UniProt P0CU08 1-235) (complex)

Source: paper PMC8287954
